What was measured:
[1] = biological target: BBK32-C (C-terminal region of BBK32, residues 206-354) (B. burgdorferi B31) (UniProt O50835); assay: SPR; Biacore 3000, 25°C; BBK32 proteins immobilised by amine coupling on a C1 sensor chip; running buffer HBS-T-Ca2+ (20 mM HEPES pH 7.3, 140 mM NaCl, 0.005% Tween 20, 5 mM CaCl2), 10 μl/min; C1 0.2-100 nM, C1r enzyme 0.39-200 nM or 2.0-1000 nM series, 1:1 (Langmuir) kinetic fit; single C1 components at a fixed 50 nM
[2] = biological target: BBK32-FL (recombinant BBK32, residues 21 to 354) (B. burgdorferi B31) (UniProt O50835); assay: as above
[3] = biological target: C1r enzyme (activated human complement C1r protease) (human)
[4] = biological target: first component of human complement, C1 (C1 complex) (human) (UniProt P02745)

Row | Molecule | Kd [1] | koff [1] | kon [1] | Kd [2] | koff [2] | kon [2] | IC50 of C1r enzyme activity (cleavage of C1s proenzyme by 50 nM C1r enzyme, SDS-PAGE densitometry) [3] | IC50 of classical pathway inhibition, ELISA: C3b detection (immobilised human IgM, 1% human serum) [4] | IC50 of classical pathway inhibition, ELISA: C4b detection (immobilised human IgM, 1% human serum) [4] | IC50 of inhibition of CP-mediated hemolysis (CP50, sensitized sheep erythrocytes, 1% normal human serum) [4]
1 | first component of human complement, C1 (C1 complex) (from UniProt P02745 23-245; P02746 28-253; P02747 29-245) | 2.3 nM | – | – | – | – | – | – | – | – | –
2 | C1r enzyme (activated human complement C1r protease) | 32 nM | 0.00011 s⁻¹ | 3900 M⁻¹ s⁻¹ | 15 nM | 0.00022 s⁻¹ | 19000 M⁻¹ s⁻¹ | – | – | – | –
3 | BBK32-C (C-terminal region of BBK32, residues 206-354) (domain or fragment) SNRYQSYLEGVKYNVDSAIQTITKIYNTYTLFSTKLTQMYSTRLDNFAKAKAKEEAAKFTKEDLEKNFKTLLNYIQVSVKTAANFVYINDTHAKRKLENIEAEIKTLIAKIKEQSNLYEAYKAIVTSILLMRDSLKEVQGIIDKNGVWY | – | – | – | – | – | – | 540 nM | 4.7 nM | 5.6 nM | 60 nM
4 | BBK32-FL (recombinant BBK32, residues 21 to 354) (natural protein) DLFIRYEMKEESPGLFDKGNSILETSEESIKKPMNKKGKGKIARKKGKSKVSRKEPYIHSLKRDSANKSNFLQKNVILEEESLKTELLKEQSETRKEKIQKQQDEYKGMTQGSLNSLSGESGELEEPIESNEIDLTIDSDLRPKSSLQGIAGSNSISYTDEIEEEDYDQYYLDEYDEEDEEEIRLSNRYQSYLEGVKYNVDSAIQTITKIYNTYTLFSTKLTQMYSTRLDNFAKAKAKEEAAKFTKEDLEKNFKTLLNYIQVSVKTAANFVYINDTHAKRKLENIEAEIKTLIAKIKEQSNLYEAYKAIVTSILLMRDSLKEVQGIIDKNGVWY | – | – | – | – | – | – | 670 nM | 34 nM | 34 nM | 110 nM

— article PMC4725857
